From US20120207760A1

B1: TCN-526 (5084_C17) (antibody, V domains shown)
VH: EVLMVESGGGLVQPGGSVRLSCVASGFSFSSHWMTWVRQAPGKGLEWVANIEDDGGDKYYVDSVKGRFIISRDNAKNSVYLQMNSLRAEDTAVYFCARGSGSSDRSDYDPHYYYYLDVWGKGATVTVSS
VL: DIQLTQSPSSLSASVGDRVTITCRASQSISRYLNWYQQKPGKAPKLLLFAASTLLDGVPSRFSGSGSGTDFTLTISSLQPEDFATYYCQRNHSPSWTFGQGTRVEIK
B2: TCN-548 (5092_P01) (antibody, V domains shown)
VH: QVQLQESGPGLVKPSETLSLTCTVSSGPMSDYYWSWIRQPPGKGLEWIGHVSVSHGGRTKSNPSVMSRVTISVETSKNQFSLKLTSVTAADTAVYYCARLNYYDRSGYHSPDGPSNNWFDPWGQGTLVTVSS
VL: not shown
B3: TCN-542 (5079_A16) (antibody, V domains shown)
VH: QVQLQESGPGLVKPSQTLSLTCTVSGGSISSGNYYWNWVRQHPGKGLEWIGYIYYRGSTFYNPSLKSRVTISIDTSKNQFSLRLSSVTAADTAVYYCAKDTRSSLDNYQYGMDVWGQGTTVTVSS
VL: QTVVTQEPSLTVSPGGTVTLTCASSTGAVTSSYFPNWFQQKPGQAPRPLIYSTTIRHSWTPARFSGSLLGGKAALTLSGVQPEDEADYYCLLYSGGDPVAFGGGTKLTVL
B4: TCN-546 (5089_L08) (antibody, V domains shown)
VH: QVQLQQWGAGLLKPSETLSLTCGVYGGSLSDYYWSWIRQPPGKGLEWIGEINHSGGTNYNPSLKRRVTISVDTSKKQFSLKMNSVTAADTAVYYCARGTDPDTEVYCRAGNCAAFDFWGQGTLVTVSS
VL: EIVLTQSPGTLSLSPGERATLSCRASHFVIGRAVAWYQQKPGQAPRLLIYGASSRATGIPDRFSGSGSGTDFTLTISRLETEDFAVFYCQHYGSSPRYAFGQGTKLEIK
B5: TCN-537 (3194_D21) (antibody, V domains shown)
VH: QVQLQQWGSGLLKPSETLSLTCAVYGGSFRDDYWTWIRQPPGKGLEWIGEINHSGRTNYNPSLKSRVTISVDTSLKQFSLKVISVTAADTAVYYCARGTSHVSRYFDWLPPTNWFDPWGQGTQVTVSS
VL: DIVLTQSPGTLSLSPGERATLSCRASQSVSSSYLAWYQQKPGQAPRLVMYGAATRATGIPDRFSGSGSGPDFTLTISRLEPEDFAMYYCQQYGNSPITFGQGTRLEIK
B6: TCN-552 (5249_I23) (antibody, V domains shown)
VH: QVQVVQSGAEVKKPGSSVRVSCQASGGTFMNYAIIWVRRAPGQGLEWMGGIIPVFPTPNYAQMFQGRVTISTDESRSTSFLELTNLRYEDTAVYYCARRIYHGGNSGFDFWGQGTLVTVSS
VL: EIVLTQSPATLSLSPGERATLSCRASQSVGNYLAWYQQKPGQAPRLLIYDSSNRAPGIPARFSGSGSGTDFTLTISSLAPEDFAVYYCQQRSKWPPMYSFGHGTKLEIK
B7: TCN-553 (5261_C18) (antibody, V domains shown)
VH: QVQVVQSGTEVKKPGSSVKVSCQTSGGRFMSYAITWVRQAPGQGLEWMGGIVPVFGTANYAQKFQGRVTITTDDSTRTAYMELSSLRSEDTAVYYCGFRYGSGYGFDSWGQGTLVTVSS
VL: EIVLTQSPGTLSLSPGERATLSCRASQSVSSSYLAWYQKKPGQAPRLLIYGASTRATGIPDRFTGSGSGTDFTLSISRLEPEDFAVYYCQHFGTSVFTFGGGTKVEIK
B8: TCN-558 (5248_H10b) (antibody, V domains shown)
VH: QVQLVQSGSEVKKPGTSVKVSCTASGSVFTNYGISWVRQAPGQGLEWMGGIIPLFGAAKYAQKFQGRVTITADESTKTVYMELSRLTSKDTAIYFCAKAPRVYEYYFDQWGQGTPVTVSS
VL: EIVMTQFPATLSVSPGERVTLSCRASQSVSNNLAWYQQKPGQPPRLLIYDASTRATGVPAKFSGTGSGTEFTLSISSLQSEDFAVYYCQQYHNWPPSYSFGLGTKLEIK
B9: TCN-554 (5277_M05) (antibody, V domains shown)
VH: QVQLVQSGADLKKPGASVKVSCKASGYTFTDYYIHWVRQAPGQGLEWMGWINPESGDTKYAQKFQGRVTMTRDTSITTAYMELGRLRSDDTAVYYCARDVSTTWSWFAPWGQGTLVTVSS
VL: DIVMTQSPDSLAVSLGERATINCRSSQSIFHNSNNENYLAWYQQKPGQPPKLLIYWASTRESGVPDRFSGSGSGTDFTLTISSLQAEDVAVYFCQQYYNAPLTFGGGTKVEIK
B10: TCN-550 (5096_F06) (antibody, V domains shown)
VH: QVQLQESGPGLVKPSETLSLTCTVSGASINSHYWSWIRQPPGKGLEWIGYVYYSGSTTYNPSLKSRVTLSVDTSKNQFSLNLSSVTAADTAFYYCARHPYDVLTGSGDWFDPWGQGTLVTVSS
VL: SYVLTQAPSVSVAPGQTARITCGGNAIGSKKVHWYQHKAGQAPVLVVYDDTDRPSGIPERFSGSNSWSTATLTINRVEAGDEADYYCQVWDFTIDHVVFGGGTKLTVL
B11: TCN-540 (5060_F05) (antibody, V domains shown)
VH: QVQLVQSGGGVVQPGRSLRLSCAASGFTFSSYAMHWVRQAPGKGLEWVAIISYDGNDQYYTDSVKGRFTISRDSSKVYLQMHRLRPEDTAVYYCAKEFETSGYFHGSFDYWGQGILVTVSS
VL: QSALTQPASVSGSPGQSITISCTGTSSDVGGYNYVSWYQQHPGKAPKLLIYEVTNWPSGVSNRFSGSKSGNTASLTISGLQAEDEADYYCSSYAGSSTWVFGGGTRVTVL
B12: TCN-557 (5081_A04) (antibody, V domains shown)
VH: QVQLVQSGAEVKKPGASVKVSCKASGHTFTGYYIHWVRQAPGQGLEWMGWINPDSGATSSAQNFQGRVTMTGDTSSSTAYMELSRLSFDDTAVYYCARVLFTSPFDFWGEGTLVTVSS
VL: QAVVTQEPSLAVSPGGTVTLTCGSSTGAVTRGHYPYWFQQKPGQAPRALIYDSAGNRHSWTPARFSGSLLGGKAALTLSGAQPEDEAEYYCLLSYSGVWVFGGGTKLTVL

molecular target: T1, recombinant homotrimeric HA, A/Wisconsin/67/05 H3N2 (Influenza A virus A/Wisconsin/67/05 (H3N2)); experiment: trimeric HA microarray, transfection set 2; conditions: remark: other sources report otherwise

B1 was tested, and the Trimeric HA Binding RLU was 27800 RLU.

molecular target: T2, recombinant homotrimeric HA, A/South Carolina/1/18 H1N1 (Influenza A virus A/South Carolina/1/18 (H1N1)); experiment: trimeric HA microarray, transfection set 2; conditions: remark: other sources report otherwise

B1 showed a Trimeric HA Binding RLU of 2310 RLU.

molecular target: T3, recombinant homotrimeric HA, A/swine/Ontario/01911-2/99 H4N6 (Influenza A virus A/swine/Ontario/01911-2/99 (H4N6)); experiment: trimeric HA microarray, transfection set 2; conditions: remark: other sources report otherwise

Work on B1 yielded a Trimeric HA Binding RLU of 3490 RLU.

molecular target: recombinant homotrimeric HA, A/Hong Kong/1073/99 H9N2 (Influenza A virus A/Hong Kong/1073/99 (H9N2)); experiment: trimeric HA microarray, transfection set 2; conditions: remark: other sources report otherwise

Work on B1 yielded a Trimeric HA Binding RLU of 490 RLU.

molecular target: T4, recombinant homotrimeric HA, A/Solomon Islands/3/06 H1N1 (Influenza A virus A/Solomon Islands/3/06 (H1N1)); experiment: trimeric HA microarray, transfection set 2; conditions: remark: other sources report otherwise

In the case of B1, the Trimeric HA Binding RLU is reported as 1470 RLU.

molecular target: T5, recombinant homotrimeric HA, A/Japan/305/57 H2N2 (Influenza A virus A/Japan/305/57 (H2N2)); experiment: trimeric HA microarray, transfection set 2; conditions: remark: other sources report otherwise

Binder B1 has a Trimeric HA Binding RLU of 3590 RLU.

molecular target: recombinant homotrimeric HA, A/Netherlands/219/03 H7N7 (Influenza A virus A/Netherlands/219/03 (H7N7)); experiment: trimeric HA microarray, transfection set 2; conditions: remark: other sources report otherwise

Work on B1 yielded a Trimeric HA Binding RLU of 5660 RLU.

molecular target: recombinant soluble homotrimeric HA of A/chicken/Vietnam/NCVD-016/08 (H5N1) (Influenza A virus A/chicken/Vietnam/NCVD-016/08 (H5N1)); experiment: microarray, BCC supernatant IgG, trimeric HA; conditions: remark: other sources report otherwise

B2 showed a Trimeric HA Binding: RLU of 254 RLU.

molecular target: recombinant soluble homotrimeric HA of A/northern shoveler/California/HKWF115/07 (Influenza A virus A/northern shoveler/California/HKWF115/2007); experiment: microarray, BCC supernatant IgG, trimeric HA; conditions: remark: other sources report otherwise

In order of falling Trimeric HA Binding: RLU:
1. B4  1350 RLU
2. B3  900 RLU
3. B2  314 RLU

molecular target: T1, recombinant homotrimeric HA, …; experiment: trimeric HA microarray, transfection set 5; conditions: remark: other sources report otherwise

In order of rising Trimeric HA Binding RLU:
1. B5  1940 RLU
2. B6  18500 RLU
3. B7  25200 RLU
4. B9  25300 RLU
5. B8  26600 RLU
6. B4  28500 RLU
7. B10  37800 RLU
8. B12  46100 RLU
9. B11  53000 RLU

molecular target: T2, recombinant homotrimeric HA, A/South …; experiment: trimeric HA microarray, transfection set 5; conditions: remark: other sources report otherwise

In order of rising Trimeric HA Binding RLU:
1. B4  955 RLU
2. B10  1010 RLU
3. B3  1120 RLU
4. B2  1150 RLU
5. B9  1260 RLU
6. B11  1360 RLU
7. B6  37400 RLU
8. B8  40700 RLU
9. B7  41300 RLU
10. B12  44900 RLU
11. B5  46800 RLU

molecular target: T3, recombinant homotrimeric HA, …; experiment: trimeric HA microarray, transfection set 5; conditions: remark: other sources report otherwise

In order of falling Trimeric HA Binding RLU:
1. B12  41500 RLU
2. B3  14300 RLU
3. B7  12200 RLU
4. B8  10000 RLU
5. B6  9080 RLU
6. B9  5400 RLU
7. B5  3280 RLU

molecular target: recombinant homotrimeric HA, A/Vietnam/1203/04 H5N1 (Influenza A virus A/Vietnam/1203/04 (H5N1)); experiment: trimeric HA microarray, transfection set 5; conditions: remark: other sources report otherwise

In order of rising Trimeric HA Binding RLU:
1. B6  18500 RLU
2. B7  19200 RLU
3. B12  21300 RLU

molecular target: recombinant homotrimeric HA, A/California/4/09 H1N1 (Influenza A virus A/California/4/09 (H1N1)); experiment: trimeric HA microarray, transfection set 5; conditions: remark: other sources report otherwise

In order of falling Trimeric HA Binding RLU:
1. B12  44400 RLU
2. B5  33800 RLU
3. B6  23500 RLU
4. B7  23300 RLU
5. B8  20200 RLU
6. B4  1080 RLU
7. B11  984 RLU
8. B2  818 RLU
9. B10  628 RLU

molecular target: T4, recombinant homotrimeric HA, A/Solomon …; experiment: trimeric HA microarray, transfection set 5; conditions: remark: other sources report otherwise

In order of falling Trimeric HA Binding RLU:
1. B7  49600 RLU
2. B6  48600 RLU
3. B8  36100 RLU
4. B12  27000 RLU
5. B11  1180 RLU
6. B9  992 RLU
7. B10  758 RLU
8. B2  750 RLU

molecular target: T5, recombinant homotrimeric HA, …; experiment: trimeric HA microarray, transfection set 5; conditions: remark: other sources report otherwise

In order of rising Trimeric HA Binding RLU:
1. B10  731 RLU
2. B2  1020 RLU
3. B4  1730 RLU
4. B9  2620 RLU
5. B3  5180 RLU
6. B5  16200 RLU
7. B12  27300 RLU
8. B8  34400 RLU
9. B7  39800 RLU
10. B11  47900 RLU
11. B6  52000 RLU

molecular target: recombinant homotrimeric HA, A/Indonesia/5/05 H5N1 (Influenza A virus A/Indonesia/5/05 (H5N1)); experiment: trimeric HA microarray, transfection set 5; conditions: remark: other sources report otherwise

In order of rising Trimeric HA Binding RLU:
1. B11  2570 RLU
2. B10  9000 RLU
3. B12  22200 RLU
4. B7  31200 RLU
5. B4  40900 RLU
6. B6  43400 RLU
